Assay results published in patent US20240317816A1, “PEPTIDES FOR IMMUNOTHERAPY” (Genevive, Inc., priority 2021, published 2024).

Legend:
Assay type in all cases: cell-based
[1] = biological target: T1, CXCR3 (Homo sapiens, UniProt P49682); experiment: SelectScreen agonist/antagonist assay, CXCR3-bla U2OS cells; set-up: TEV protease site; Gal4-VP16 transcription factor ('Ga14-VP16' [sic]); Tango cell line; host or cells: Tango GPCR-bla U2OS; details: for SelectScreen Antagonist Mode: control agonist I-TAC at EC80
T1 sequence (P49682 1-368): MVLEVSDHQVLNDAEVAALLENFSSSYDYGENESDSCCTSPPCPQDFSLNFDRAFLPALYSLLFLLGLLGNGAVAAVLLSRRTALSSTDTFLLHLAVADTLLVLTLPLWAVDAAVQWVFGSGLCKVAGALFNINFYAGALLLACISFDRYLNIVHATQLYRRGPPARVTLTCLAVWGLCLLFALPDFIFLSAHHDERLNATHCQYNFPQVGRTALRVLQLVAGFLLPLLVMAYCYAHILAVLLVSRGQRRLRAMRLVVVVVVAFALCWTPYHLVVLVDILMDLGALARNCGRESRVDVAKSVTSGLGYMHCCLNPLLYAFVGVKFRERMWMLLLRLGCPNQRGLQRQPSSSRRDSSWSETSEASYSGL
Experimental: In agonist assays, chemokine receptor expressing U2OS cells are thawed and resuspended in Assay Media (DMEM, 1% dialyzed FBS, 25 mM HEPES pH 7.3, 0.1 mM NEAA, 100 U/mL/100 μg/mL Pen/Strep) to a concentration of 312,500 cells/mL. 4 μL of a 10× serial dilution of I-TAC (control agonist starting concentration, 500 nM) or compounds are added to appropriate wells of a 384-well TC-Treated assay plate. 32 μL of cell suspension (10,000 cells) is added to each well. 4 μL of Assay Media is added to all wells to bring the final assay volume to 40 μL. The plate is incubated for 16-24 hours at 37° C./5% CO2 in a humidified incubator. 8 μL of 1 μM Substrate+Solution D Loading Solution is added to each well and the plate is incubated for 2 hours at room temperature. The plate is read on a fluorescence plate reader.
In antagonist assays, CXCR3-bla U2OS cells were thawed and prepared as described above for the Agonist assay. 4 μL of 10× compounds or assay media was added to appropriate wells of a TC-Treated assay plate. 32 μL of cell suspension was added to the wells and pre-incubated at 37° C./5% CO2 in a humidified incubator with compounds and control antagonist titration for 30 minutes. 4 μL of 10× control agonist I-TAC at the pre-determined EC80 concentration is added to wells containing the control antagonist or compounds. The plate is incubated for 16-24 hours at 37° C./5% CO2 in a humidified incubator. 8 μL of 1 μM Substrate+Solution D Loading Solution is added to each well and the plate is incubated for 2 hours at room temperature. The plate is read on a fluorescence plate reader.
Tango™ CXCR3-bla U2OS cells contain the human chemokine (C-X-C motif) receptor 3 linked to a TEV protease site and a Ga14-VP16 transcription factor stably integrated into the Tango™ GPCR-bla U2OS cell line. This parental cell line stably expresses a beta-arrestin/TEV protease fusion protein and the beta-lactamase reporter gene under the control of a UAS response element. The Tango™ CXCR3-bla U2OS cells have been functionally validated for a response to I-TAC (CXCL11).

[2] = system: (LPS)-stimulated human monocyte-derived DCs; experiment: CXCL10 induction in LPS-stimulated dendritic cells; details: for dose-dependent response of CXCL10 induction: dose response analysis, same assay setup; for CXCL10 induction: supernatants of low dose LPS-stimulated dendritic cells, vs other peptides and negative control peptide
Experimental: Studies were performed to identify target peptides that induced CXCL10 production. Target peptides identified from human microbiomes from patients that responded to anti-PD-1 therapy were each synthesized and tested for TNF-α, CXCL10, IL6, and INF-γ induction. Fifteen peptides with high CXCL10 induction were identified for additional testing, indicated with asterisks in the figure (FIG. 1). […] Peptide sequences and characteristics can be found in Tables 4-7.
Peptides that bound to specific immune cells (1% of the screened peptides) were then evaluated for activity in cell-based assays using isolated primary human T cells, DCs, and macrophages. Immune-driven inhibition of tumor growth relies on DC-mediated recruitment of effector T cells, mainly via CXCL9 and CXCL10. […] Peptides inducing robust CXCL10 secretion (LPS)-stimulated human monocyte-derived DCs from multiple donors, with a mean induction of >2-fold of CXCL10 over OVA323 339 control peptide in DCs were selected for dose response analysis (n=36). […] To confirm cross species activity, 10 of the 15 peptides with EC50<10 μM were screened in vitro for CXCL10 induction in mouse bone marrow DCs.

[3] = biological target: T2, CCR9 (Homo sapiens, UniProt P51686); experiment: gpcrMAX PathHunter β-Arrestin Assay
T2 construct: expressed in transfected cells
T2 sequence (P51686 1-369): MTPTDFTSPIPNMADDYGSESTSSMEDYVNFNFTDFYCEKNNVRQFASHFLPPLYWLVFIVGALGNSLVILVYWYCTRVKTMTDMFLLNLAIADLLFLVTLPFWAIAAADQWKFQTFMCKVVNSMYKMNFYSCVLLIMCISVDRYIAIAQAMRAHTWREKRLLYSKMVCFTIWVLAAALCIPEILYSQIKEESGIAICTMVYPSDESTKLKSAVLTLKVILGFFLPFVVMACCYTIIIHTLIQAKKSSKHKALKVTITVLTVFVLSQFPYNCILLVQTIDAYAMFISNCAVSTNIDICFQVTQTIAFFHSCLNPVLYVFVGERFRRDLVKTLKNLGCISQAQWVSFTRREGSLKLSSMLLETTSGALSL
Text: The PathHunter® β-Arrestin Assay monitored activation of a panel of 168 G-protein coupled receptors (GPCRs) with […] activation of the GPCR in agonist and antagonist mode.
where the test sample is the peptide, the vehicle control is DMSO (0% activity), and the control ligand is control compound (100% activity).
Peptides SG-3-00802 and SG-3-05021 were identified as an agonist, an antagonist, a PAM (Positive Allosteric Modulator), or an inverse-agonist. Agonist, antagonist, PAM, and inverse-agonist were identified according to the guidelines in Table 8. The basal activity/noise is a % activity of −20% to 20% for both agonist and antagonist modes. A PAM (Positive Allosteric Modulator) binds to a receptor, at a different site than the agonist, to change the receptor's response to the agonist. An inverse-Agonist is a binding partner with agonistic shutting down of basal activity in the cell. An antagonist antagonizes the activity of a particular binding partner.

[4] = biological target: T3, CXCR4 (Homo sapiens, UniProt P61073); experiment: SelectScreen agonist/antagonist assay, chemokine receptor expressing U2OS cells
T3 construct: host or cells: U2OS
T3 sequence (P61073 whole entry): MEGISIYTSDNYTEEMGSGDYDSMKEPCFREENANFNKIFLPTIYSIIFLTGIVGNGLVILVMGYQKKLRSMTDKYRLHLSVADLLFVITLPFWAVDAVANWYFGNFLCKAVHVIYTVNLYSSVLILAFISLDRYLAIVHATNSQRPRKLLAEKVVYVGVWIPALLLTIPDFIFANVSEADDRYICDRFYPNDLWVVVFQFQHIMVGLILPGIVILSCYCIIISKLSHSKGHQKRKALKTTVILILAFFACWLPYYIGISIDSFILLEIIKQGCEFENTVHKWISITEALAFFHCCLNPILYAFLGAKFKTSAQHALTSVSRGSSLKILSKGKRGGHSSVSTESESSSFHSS

Sequence | SelectScreen Agonist Mode [1] | SelectScreen Antagonist Mode [1] | dose-dependent response of CXCL10 induction [2] | CXCL10 induction [2] | % Agonist Activity [3] [%] | % Antagonist Activity [3] [%] | SelectScreen Agonist Mode [4] | SelectScreen Antagonist Mode [4]
MKVRPSVKPMCEKCKIIRRKGRVMVICENPKHKQRQG [SG-3-00802] | weak agonistic activity and No | potent reverse antagonistic activity (sensitization) and PAM | robust dose-dependent response | high CXCL10 inducers | 2 | −48 | no agonistic activity and No | moderate antagonistic activity and Yes
LGKTDWIEKYFKVKKEKIDKMQRFLQG (peptide for immunotherapy; SG-3-05021) | no agonistic activity and No | reverse antagonistic activity (sensitization) and PAM | robust dose-dependent response | high CXCL10 inducers | – | – | no agonistic activity and No | –
